Measured values from paper PMC2942077 (Biochemistry, 2010).

Columns and labels:
Assay in all cases: pull-down
[1] = molecular target: T1, RP2 L188P disease-causing mutant, purified recombinant (human, UniProt O75695 1-350, L188P)
T1 sequence (looked up): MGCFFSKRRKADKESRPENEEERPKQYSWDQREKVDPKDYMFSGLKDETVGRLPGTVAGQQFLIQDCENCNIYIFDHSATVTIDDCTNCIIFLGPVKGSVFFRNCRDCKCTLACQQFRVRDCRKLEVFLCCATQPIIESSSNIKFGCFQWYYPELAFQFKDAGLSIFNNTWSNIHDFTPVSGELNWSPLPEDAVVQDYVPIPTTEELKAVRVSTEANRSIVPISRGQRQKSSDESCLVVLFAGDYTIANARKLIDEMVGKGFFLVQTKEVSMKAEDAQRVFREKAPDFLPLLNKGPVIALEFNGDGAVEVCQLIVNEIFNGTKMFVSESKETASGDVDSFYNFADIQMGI

[2] = molecular target: T2, RP2 R118H disease-linked mutant, purified recombinant (human, UniProt O75695 1-350, R118H)
T2 sequence (looked up): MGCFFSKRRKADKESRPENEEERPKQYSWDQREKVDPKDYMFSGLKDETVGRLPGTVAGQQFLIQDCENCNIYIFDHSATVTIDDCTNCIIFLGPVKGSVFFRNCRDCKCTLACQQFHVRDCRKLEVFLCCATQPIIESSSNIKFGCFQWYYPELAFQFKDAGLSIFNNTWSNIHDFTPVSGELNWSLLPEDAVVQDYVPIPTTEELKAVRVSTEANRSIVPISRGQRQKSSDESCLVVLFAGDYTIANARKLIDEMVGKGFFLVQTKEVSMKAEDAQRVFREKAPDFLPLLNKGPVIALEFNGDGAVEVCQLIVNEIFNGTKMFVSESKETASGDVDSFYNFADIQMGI

[3] = molecular target: T3, purified recombinant wild-type human RP2 (human, UniProt O75695 1-350)
T3 sequence (looked up): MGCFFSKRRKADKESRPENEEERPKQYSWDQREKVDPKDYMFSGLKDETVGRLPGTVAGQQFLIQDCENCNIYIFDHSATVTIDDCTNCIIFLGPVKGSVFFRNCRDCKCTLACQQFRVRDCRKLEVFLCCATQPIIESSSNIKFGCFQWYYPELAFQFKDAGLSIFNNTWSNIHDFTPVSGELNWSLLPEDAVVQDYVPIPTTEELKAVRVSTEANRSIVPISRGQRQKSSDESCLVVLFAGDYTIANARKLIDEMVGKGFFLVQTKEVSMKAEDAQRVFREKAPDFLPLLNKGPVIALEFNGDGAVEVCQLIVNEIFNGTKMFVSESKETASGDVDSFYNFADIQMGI

[4] = molecular target: T4, RP2 R282W disease-linked mutant, purified recombinant (human, UniProt O75695 1-350, R282W)
T4 sequence (looked up): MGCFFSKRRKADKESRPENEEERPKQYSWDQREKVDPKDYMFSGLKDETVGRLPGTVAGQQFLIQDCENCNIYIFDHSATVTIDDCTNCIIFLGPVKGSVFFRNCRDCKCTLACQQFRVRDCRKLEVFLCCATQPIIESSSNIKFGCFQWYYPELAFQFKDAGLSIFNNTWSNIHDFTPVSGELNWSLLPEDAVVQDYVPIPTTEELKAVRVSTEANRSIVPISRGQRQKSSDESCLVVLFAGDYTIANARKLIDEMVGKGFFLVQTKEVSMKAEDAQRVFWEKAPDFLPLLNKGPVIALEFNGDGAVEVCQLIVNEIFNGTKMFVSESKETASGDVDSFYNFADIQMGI

Measured: binding result

B1: GST fusion protein containing the N-terminal domain of NSF (domain or fragment, Chinese hamster, UniProt P18708 1-205, looked up)
chain: MAGRSMQAARCPTDELSLSNCAVVSEKDYQSGQHVIVRTSPNHKYIFTLRTHPSVVPGSVAFSLPQRKWAGLSIGQEIEVALYSFDKAKQCIGTMTIEIDFLQKKNIDSNPYDTDKMAAEFIQQFNNQAFSVGQQLVFSFNDKLFGLLVKDIEAMDPSILKGEPASGKRQKIEVGLVVGNSQVAFEKAENSSLNLIGKAKTKENR
binds: all assays above
